Results from article PMC3280358 (2012).

Columns and labels:
[1] = molecular target: T13 monophosphorylated Rad51 NTD peptide (human, UniProt Q06609, phosphothreonine at T13); test: ITC
[2] = molecular target: T13/S14 diphosphorylated Rad51 NTD peptide (human, UniProt Q06609, phosphothreonine at T13; phosphoserine at S14); test: ITC

Kd [1] [µM] | Kd [2] [µM] | Binder
24 |  | Nbs1 (1-382) K160M (domain or fragment) MWKLLPAAGPAGGEPYRLLTGVEYVVGRKNCAILIENDQSISRNHAVLTANFSVTNLSQTDEIPVLTLKDNSKYGTFVNEEKMQNGFSRTLKSGDGITFGVFGSKFRIEYEPLVACSSCLDVSGKTALNQAILQLGGFTVNNWTEECTHLVMVSVKVTIMTICALICGRPIVKPEYFTEFLKAVESKKQPPQIESFYPPLDEPSIGSKNVDLSGRQERKQIFKGKTFIFLNAKQHKKLSSAVVFGGGEARLITEENEEEHNFFLAPGTCVVDTGITNSQTLIPDCQKKWIQSIMDMLQRQGLRPIPEAEIGLAVIFMTTKNYCDPQGHPSTGLKTTTPGPSLSQGVSVDEKLMPSAPVNTTTYVADTESEQADTWDLSERPK
 | 57 | recombinant fragment of Nbs1 (residues 1-382), wild type (domain or fragment) MWKLLPAAGPAGGEPYRLLTGVEYVVGRKNCAILIENDQSISRNHAVLTANFSVTNLSQTDEIPVLTLKDNSKYGTFVNEEKMQNGFSRTLKSGDGITFGVFGSKFRIEYEPLVACSSCLDVSGKTALNQAILQLGGFTVNNWTEECTHLVMVSVKVTIKTICALICGRPIVKPEYFTEFLKAVESKKQPPQIESFYPPLDEPSIGSKNVDLSGRQERKQIFKGKTFIFLNAKQHKKLSSAVVFGGGEARLITEENEEEHNFFLAPGTCVVDTGITNSQTLIPDCQKKWIQSIMDMLQRQGLRPIPEAEIGLAVIFMTTKNYCDPQGHPSTGLKTTTPGPSLSQGVSVDEKLMPSAPVNTTTYVADTESEQADTWDLSERPK
